The values that follow come from US20020055130.

The target of the data set is recombinant kinase inactive SEK1 (SEK1 K→M).

B1: MEKK1 cleavage fragment C (protein)
chain: GHQDSLQAVAPTSCLENSSLEHTVHREKTGKGLSATRLSASSEDISDRLAGVSVGLPSSTTTEQPKPAVQTKGRPHSQCLNSSPLSHAQLMFPAPSAPCSSAPSVPDISKHRPQAFVPCKIPSASPQTQRKFSLQFQRNCSEHRDSDQLSPVFTQSRPPPSSNIHRPKPSRPVPGSTSKLGDATKSSMTLDLGSASRCDDSFGGGGNSGNAVIPSDETVFTPVEDKCRLDVNTELNSSIEDLLEASMPSSDTTVTFKSEVAVLSPEKAENDDTYKDDVNHNQKCKEKMEAEEEEALAIAMAMSASQDALPIVPQLQVENGEDIIIIQQDTPETLPGHTKAKQPYREDAEWLKGQQIGLGAFSSCYQAQDVGTGTLMAVKQVTYVRNTSSEQEEVVEALREEIRMMGHLNHPNIIRMLGATCEKSNYNLFIEWMAGGSVAHLLSKYGAFKESVVINYTEQLLRGLSYLHENQIIHRDVKGANLLIDSTGQRLRIADFGAAARLASKGTGAGEFQGQLLGTIAFMAPEVLRGQQYGRSCDVWSVGCAIIEMACAKPPWNAEKHSNHLALIFKIASATTAPSIPSHLSPGLRDVAVRCLELQPQDRPPSRELLKHPVFRTTW
With B1, the “phosphorylation of SEK1 K→M by immunoprecipitates (in vitro kinase assay)” value is given as “a stronger SEK1 phosphorylation signal was detected”.

B2: HA-tagged full length mouse MEKK1 (196 kDa; plasmid MEKK1.cp4, expressed in HEK293 cells) (protein)
chain: MGYPYDVDYASMAAAAGDRASSSGFPGAAAASPEAGGGGGGGGALQGSGAPAAGAAGLLREPGSAGRERADWRRRQLRKVRSVELDQLPEQPLFLAAASPPCPSTSPSPEPADAAAGASRFQPAAGPPPPGAASRCGSHSAELAAARDSGARSPAGAEPPSAAAPSGREMENKETLKGLHKMEDRPEERMIREKLKATCMPAWKHEWLERRNRRGPVVVKPIPIKGDGSEVNNLAAEPQGEGQAGSAAPAPKGRRSPSPGSSPSGRSVKPESPGVRRKRVSPVPFQSGRITPPRRAPSPDGFSPYSPEETSRRVNKVMRARLYLLQQIGPNSFLIGGDSPDNKYRVFIGPQNCSCGRGAFCIHLLFVMLRVFQLEPSDPMLWRKTLKNFEVESLFQKYHSRRSSRIKAPSRNTIQKFVSRMSNSHTLSSSSTSTSSSENSIKDEEEQMCPICLLGMLDEESLTVCEDGCRNKLHHHCMSIWAEECRRNREPLICPLCRSKWRSHDFYSHELSSPVESPASLRAVQQPSSPQQPVAGSQRRNQESSFNLTHFGTQQIPSAYKDLAEPWIQVFGMELVGCLFSRNWNVREMALRRLSHDVSGALLLANGESTGNSGGGSGGSLSAGAASGSSQPSISGDVVEACCSVLSIVCADPVYKVYVAALKTLRAMLVYTPCHSLAERIKLQRLLRPVVDTILVKCADANSRTSQLSISTVLELCKGQAGELAVGREILKAGSIGVGGVDYVLSCILGNQAESNNWQELLGRLCLIDRLLLEFPAEFYPHIVSTDVSQAEPVEIRYKKLLSLLTFALQSIDNSHSMVGKLSRRIYLSSARMVTAVPAVFSKLVTMLNASGSTHFTRMRRRLMAIADEVEIAEVIQLGVEDTVDGHQDSLQAVAPTSCLENSSLEHTVHREKTGKGLSATRLSASSEDISDRLAGVSVGLPSSTTTEQPKPAVQTKGRPHSQCLNSSPLSHAQLMFPAPSAPCSSAPSVPDISKHRPQAFVPCKIPSASPQTQRKFSLQFQRNCSEHRDSDQLSPVFTQSRPPPSSNIHRPKPSRPVPGSTSKLGDATKSSMTLDLGSASRCDDSFGGGGNSGNAVIPSDETVFTPVEDKCRLDVNTELNSSIEDLLEASMPSSDTTVTFKSEVAVLSPEKAENDDTYKDDVNHNQKCKEKMEAEEEEALAIAMAMSASQDALPIVPQLQVENGEDIIIIQQDTPETLPGHTKAKQPYREDAEWLKGQQIGLGAFSSCYQAQDVGTGTLMAVKQVTYVRNTSSEQEEVVEALREEIRMMGHLNHPNIIRMLGATCEKSNYNLFIEWMAGGSVAHLLSKYGAFKESVVINYTEQLLRGLSYLHENQIIHRDVKGANLLIDSTGQRLRIADFGAAARLASKGTGAGEFQGQLLGTIAFMAPEVLRGQQYGRSCDVWSVGCAIIEMACAKPPWNAEKHSNHLALIFKIASATTAPSIPSHLSPGLRDVAVRCLELQPQDRPPSRELLKHPVFRTTW
With B2, the “phosphorylation of SEK1 K→M by immunoprecipitates (in vitro kinase assay)” value is “When the full length MEKK1 protein was immunoprecipitated by the 12CA5 antibody it had measureable autophosphorylation and activity towards SEK1”.
